Laboratory results published in patent US20210139605A1 (AGENCY FOR SCIENCE TECHNOLOGY AND RESEARCH, published 2021).

Columns and labels:
HER-3 = HER-3 (UniProt P21860 20-643, limits assumed); assay: SPR, HER-3 immobilised on the chip, antibody flowed; concentration not given [panel P1F1]
Text: (§1) In order to assess the specificity of the binding, molecules closely related to HER-2 were also used as bound antigens, namely EGFR and HER-3.

[1] = molecular target: T1, human HER-2 protein (soluble / recombinant, used in SPR) (human, UniProt P04626 23-652); assay: SPR
T1 construct: also called immobilized HER2 protein; recombinant HER-2

EGFR = molecular target: T2, EGFR (UniProt P00533 25-645, limits assumed); assay: SPR, EGFR immobilised on the chip, antibody flowed; concentration not given [panel P1F1]
T2 construct: also called HER1
Text: as §1

HER-3, sequence (P21860 20-643 limits assumed): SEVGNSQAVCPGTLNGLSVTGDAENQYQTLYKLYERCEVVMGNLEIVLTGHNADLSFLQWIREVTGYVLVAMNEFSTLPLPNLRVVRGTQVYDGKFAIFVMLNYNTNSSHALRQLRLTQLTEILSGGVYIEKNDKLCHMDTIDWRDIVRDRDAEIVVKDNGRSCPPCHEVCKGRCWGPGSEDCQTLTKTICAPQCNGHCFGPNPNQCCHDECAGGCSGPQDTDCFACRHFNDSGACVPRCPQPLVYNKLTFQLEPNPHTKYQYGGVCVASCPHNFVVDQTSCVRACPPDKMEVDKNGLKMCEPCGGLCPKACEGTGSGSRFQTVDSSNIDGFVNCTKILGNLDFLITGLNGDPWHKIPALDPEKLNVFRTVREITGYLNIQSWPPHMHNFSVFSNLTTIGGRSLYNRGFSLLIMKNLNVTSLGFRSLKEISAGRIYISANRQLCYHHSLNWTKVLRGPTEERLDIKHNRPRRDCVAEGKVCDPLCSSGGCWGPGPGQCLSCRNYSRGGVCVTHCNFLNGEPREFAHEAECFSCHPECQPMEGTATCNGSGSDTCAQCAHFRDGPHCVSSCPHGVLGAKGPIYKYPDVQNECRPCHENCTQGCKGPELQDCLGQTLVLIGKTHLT

- binding result (HER-3): no binding
- Kd [1]: 11.6 nM
- binding result (EGFR): no binding
B1: P1F1 antibody (antibody, V domains shown)
VH: QVQLVESGPGLVKPSGTLSLTCAVSGGSISSSNWWSWVRQPPGKGLEWIGEIYHSGSTNYNPSLKSRVTISVDTSKNQFSLKLSSVTAADTAVYYCARMGANSGGYLYGMDVWGQGTTVTVSS
VL: QTVVTQEPSFSVSPGGTVTLTCGLSSGSVSTSYYPSWYQQTPGQAPRTLIYSTNTRSSGVPDRFSGSILGNKAALTITGAQADDESDYYCVLYMGSGIWVFGGGTKLTVLG
